Patent EP4635983A1 (Ymmunobio AG, dated 2025)
Where no end group is shown, it is not given here.

What was measured:
[1] = target: T1, recombinant human NPTXR (rhNPTXR; Ala24 to Ala500 of Acc no. #O95502) (human, UniProt O95502 24-500); assay: ELISA, rhNPTXR immobilized on plate, antibody titrated from 10 ug/ml, anti-human IgG Fc-HRP detection
T1 construct: range 24-500; Recombinant protein immobilized on the ELISA plate
T1 sequence (looked up): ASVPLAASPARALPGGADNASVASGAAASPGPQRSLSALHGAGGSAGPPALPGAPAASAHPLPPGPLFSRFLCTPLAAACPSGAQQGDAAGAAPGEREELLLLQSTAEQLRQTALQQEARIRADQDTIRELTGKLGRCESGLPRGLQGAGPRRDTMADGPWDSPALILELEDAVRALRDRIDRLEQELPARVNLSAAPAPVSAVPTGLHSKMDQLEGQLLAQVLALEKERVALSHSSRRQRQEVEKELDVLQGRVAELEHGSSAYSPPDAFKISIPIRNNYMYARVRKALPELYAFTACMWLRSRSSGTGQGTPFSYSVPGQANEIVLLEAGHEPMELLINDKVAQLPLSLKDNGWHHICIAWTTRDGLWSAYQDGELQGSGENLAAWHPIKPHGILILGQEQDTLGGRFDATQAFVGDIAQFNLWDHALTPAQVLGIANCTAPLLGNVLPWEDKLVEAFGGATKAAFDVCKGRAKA

[2] = target: T2, peptide (mNPTXR) representing the mouse NPTXR epitope space (mouse, also: biotinylated, position not given here); assay: ELISA, biotinylated mNPTXR peptide captured by streptavidin, antibody titrated from 10 ug/ml, anti-human IgG Fc-HRP detection
T2 construct: Immobilized on the ELISA plate by streptavidin capture; also called Bio-mNPTXR; Strep + Bio-mNPTXR
T2 peptide: CESGLPRGLQDAGPRRDT

B1: YB-800 (antibody, human IgG1, V domains shown)
VH: QVQLVQSGAEVKKPGASVKVSCKASGYTFTNYGMNWVRQAPGQRLEWMGWINTDIGEPTYSQKFQGRVTITRDTSASTAYMELSSLRSEDTAVYYCAREMDVWGQGTTVTVSS
VL: DIQMTQSPSSLSASVGDRVTITCRASQSISDYLHWYQQKPGKAPKLLIKYVSHSISGVPSRFSGSGSGTDFTLTISSLQPEDFATYYCLNGHSFPFTFGGGTKVEIK
B1 gave an EC50 [1] of 0.0271 µg/mL and an EC50 [2] of 0.0309 µg/mL.
